{
  "source": "patent US20230192899A1",
  "about": "(published 2023)",
  "key": {"[1]": {"molecular_target": "human CD47 on cells (human erythrocytes, MCF-7, BT-474) (human, UniProt Q08722 19-323)", "assay": "cell-based or functional assay"}, "[2]": {"molecular_target": "T1, human CD47 protein (ELISA coat) (human, UniProt Q08722 19-139)", "T1 construct": "also called hCD47", "assay": "direct binding ELISA (FIG. 7C)"}, "[3]": {"molecular_target": "human C-MET protein (ELISA coat) (human, UniProt P08581 25-932)", "sequence (P08581 25-932 limits assumed)": "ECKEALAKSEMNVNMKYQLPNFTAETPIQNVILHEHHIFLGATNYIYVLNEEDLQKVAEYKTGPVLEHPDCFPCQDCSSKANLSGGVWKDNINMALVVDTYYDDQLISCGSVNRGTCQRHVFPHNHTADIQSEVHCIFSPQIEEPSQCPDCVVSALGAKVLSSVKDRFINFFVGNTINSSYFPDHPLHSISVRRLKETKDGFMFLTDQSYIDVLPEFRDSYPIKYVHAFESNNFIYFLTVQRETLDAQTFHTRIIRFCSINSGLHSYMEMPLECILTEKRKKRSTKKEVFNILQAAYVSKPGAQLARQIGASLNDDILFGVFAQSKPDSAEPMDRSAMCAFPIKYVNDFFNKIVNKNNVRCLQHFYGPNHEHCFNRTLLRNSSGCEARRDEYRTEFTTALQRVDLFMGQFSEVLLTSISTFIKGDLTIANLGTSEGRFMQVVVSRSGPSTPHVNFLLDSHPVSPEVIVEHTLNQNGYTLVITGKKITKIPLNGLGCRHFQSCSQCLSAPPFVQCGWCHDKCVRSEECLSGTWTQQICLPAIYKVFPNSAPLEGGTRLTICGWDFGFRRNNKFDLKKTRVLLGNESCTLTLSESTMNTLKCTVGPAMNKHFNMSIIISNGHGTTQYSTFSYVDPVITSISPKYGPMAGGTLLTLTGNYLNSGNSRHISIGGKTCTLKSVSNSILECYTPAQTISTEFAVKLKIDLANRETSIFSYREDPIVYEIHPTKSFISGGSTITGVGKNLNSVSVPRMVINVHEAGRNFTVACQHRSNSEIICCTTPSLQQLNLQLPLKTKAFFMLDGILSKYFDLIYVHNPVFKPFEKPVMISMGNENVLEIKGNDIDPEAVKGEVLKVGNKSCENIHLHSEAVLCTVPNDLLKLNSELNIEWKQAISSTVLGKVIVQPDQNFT", "assay": "direct binding ELISA (FIG. 7C)"}, "[4]": {"molecular_target": "T2, soluble human CD47 ectodomain protein (human, UniProt Q08722 19-139)", "T2 construct": "also called hCD47; huCD47", "assay": "SPR (Biacore), IgG captured via anti-Fc; run at end"}, "[5]": {"molecular_target": "T2, soluble human CD47 ectodomain protein", "assay": "SPR (Biacore), IgG captured via anti-Fc; run at beginning"}, "[6]": {"molecular_target": "T3, mouse membrane-presented CD47 on Tg32 mouse erythrocytes (mouse, UniProt Q61735 19-303)", "T3 construct": "whole, on cells", "T3 sequence (looked up)": "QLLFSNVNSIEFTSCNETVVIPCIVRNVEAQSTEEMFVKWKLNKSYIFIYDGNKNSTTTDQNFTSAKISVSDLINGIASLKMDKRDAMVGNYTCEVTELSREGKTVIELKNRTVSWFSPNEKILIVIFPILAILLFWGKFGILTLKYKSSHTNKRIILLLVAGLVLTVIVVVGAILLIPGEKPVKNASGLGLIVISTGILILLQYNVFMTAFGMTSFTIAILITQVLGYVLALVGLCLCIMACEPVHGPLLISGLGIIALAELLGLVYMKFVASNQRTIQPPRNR", "assay": "flow cytometry on Tg32 mouse erythrocytes (FIG. 21)"}},
  "data": [
    {"binder": "Fab^2 cMETCD47-LHL-LHL (bispecific antibody, also called Met47-LHL-LHL; clone 6) heavy: not shown light: EIVLTQSPGTLSLSPGERATLSCRASQSVSSYANSYLHWYQQKPGQAPRLLIYRGSTRESGIPDRFSGSGSGTDFTLTISRLEPEDFAVYYCQQSKSEPLTFGGGTKVEIKRTVAAPSVFIFPPSDEQLKSGTASVVCLLNNFYPREAKVQWKVDNALQSGNSQESVTEQDSKDSTYSLSSTLTLSKADYEKHKVYACEVTHQGLSSPVTKSFNRGECGPAPELLGGGSDIVMTQSPLSLPVTPGEPASISCRSSQSLLHSNGYNYLHWYLQKPGQSPQLLIYKVSNRLSGVPDRFSGSGSGTDFTLKISRVEAEDVGVYYCFQNTHTPRTFGGGTKVEIKRTVAAPSVFIFPPSDEQLKSGTASVVCLLNNFYPREAKVQWKVDNALQSGNSQESVTEQDSKDSTYSLSSTLTLSKADYEKHKVYACEVTHQGLSSPVTKSFNRGECGGGGSGGGGSCPPCPAPELLGGPSVFLFPPKPKDTLMISRTPEVTCVVVDVSHEDPEVKFNWYVDGVEVHNAKTKPREEQYNSTYRVVSVLTVLHQDWLNGKEYKCKVSNKALPAPIEKTISKAKGQPREPQVYTLPPSRDELTKNQVSLSCAVKGFYPSDIAVEWESNGQPENNYKTTPPVLDSDGSFFLVSKLTVDKSRWQQGNVFSCSVMHEALHNHYTQKSLSLSPG", "values": [
      {"measurement": "fold reduction of ability to induce agglutination in comparison to A-D5 IgG1", "setting": "[1]", "value": "> 241", "unit": "fold"},
      {"measurement": "fold reduction of ability to bind CD47 in comparison to A-D5 IgG1", "setting": "[2]", "value": "> 1000", "unit": "fold"},
      {"measurement": "binding result", "setting": "[3]", "value": "binds"}
    ]},
    {"binder": "A-D5 anti-CD47 IgG1 (antibody, V domains shown, also called A-D5 IgG1; A-D5 CD47 IgG) VH: QVQLVQSGAEVKKPGESLKISCKGSGYTFTNYYIFWVRQMPGKGLEWMGIINPVDGDTNYNPSFQGQVTISADKSISTAYLQWSSLKASDTAMYYCARGGYTMDRWGQGTLVTVSS VL: DIVMTQSPLSLPVTPGEPASISCRSSQSLLHSNGYNYLHWYLQKPGQSPQLLIYKVSNRLSGVPDRFSGSGSGTDFTLKISRVEAEDVGVYYCFQNTHTPRTFGGGTKVEIK", "values": [
      {"measurement": "Kd", "setting": "[4]", "value": 1.32, "unit": "nM"},
      {"measurement": "koff", "setting": "[4]", "value": 0.00103, "unit": "s⁻¹"},
      {"measurement": "kon", "setting": "[4]", "value": 775000, "unit": "M⁻¹ s⁻¹"},
      {"measurement": "Kd", "setting": "[5]", "value": 1.29, "unit": "nM"},
      {"measurement": "koff", "setting": "[5]", "value": 0.00107, "unit": "s⁻¹"},
      {"measurement": "kon", "setting": "[5]", "value": 833000, "unit": "M⁻¹ s⁻¹"}
    ]},
    {"binder": "Fab^2 Met47 LHL-LHL (as used in the Tg32 mouse studies) (bispecific antibody, not shown: a dimerising Fc or GST) heavy: QVQLVQSGAEVKKPGASVKVSCKASGYTFTSYTMHWVRQAPGQGLEWMGIINPSGGSTSYAQKFQGRVTMTRDTSTSTVYMELSSLRSEDTAVYYCARQEITTEFDYWGQGTLVTVSSASTKGPSVFPLAPSSKSTSGGTAALGCLVKDYFPEPVTVSWNSGALTSGVHTFPAVLQSSGLYSLSSVVTVPSSSLGTQTYICNVNHKPSNTKVDKKVEPKSCGPAPELLGGGSQVQLVQSGAEVKKPGESLKISCKGSGYTFTNYYIFWVRQMPGKGLEWMGIINPVDGDTNYNPSFQGQVTISADKSISTAYLQWSSLKASDTAMYYCARGGYTMDRWGQGTLVTVSS light: EIVLTQSPGTLSLSPGERATLSCRASQSVSSYANSYLHWYQQKPGQAPRLLIYRGSTRESGIPDRFSGSGSGTDFTLTISRLEPEDFAVYYCQQSKSEPLTFGGGTKVEIKRTVAAPSVFIFPPSDEQLKSGTASVVCLLNNFYPREAKVQWKVDNALQSGNSQESVTEQDSKDSTYSLSSTLTLSKADYEKHKVYACEVTHQGLSSPVTKSFNRGECGPAPELLGGGSDIVMTQSPLSLPVTPGEPASISCRSSQSLLHSNGYNYLHWYLQKPGQSPQLLIYKVSNRLSGVPDRFSGSGSGTDFTLKISRVEAEDVGVYYCFQNTHTPRTFGGGTKVEIK", "values": [
      {"measurement": "binding result", "setting": "[6]", "value": "no binding (tested: 10 µg/ml)"}
    ]},
    {"binder": "Fab^2 cMETCD47-L2-L2 (bispecific antibody) heavy: not shown light: EIVLTQSPGTLSLSPGERATLSCRASQSVSSYANSYLHWYQQKPGQAPRLLIYRGSTRESGIPDRFSGSGSGTDFTLTISRLEPEDFAVYYCQQSKSEPLTFGGGTKVEIKRTVAAPSVFIFPPSDEQLKSGTASVVCLLNNFYPREAKVQWKVDNALQSGNSQESVTEQDSKDSTYSLSSTLTLSKADYEKHKVYACEVTHQGLSSPVTKSFNRGECGGGGSGGGGSDIVMTQSPLSLPVTPGEPASISCRSSQSLLHSNGYNYLHWYLQKPGQSPQLLIYKVSNRLSGVPDRFSGSGSGTDFTLKISRVEAEDVGVYYCFQNTHTPRTFGGGTKVEIKRTVAAPSVFIFPPSDEQLKSGTASVVCLLNNFYPREAKVQWKVDNALQSGNSQESVTEQDSKDSTYSLSSTLTLSKADYEKHKVYACEVTHQGLSSPVTKSFNRGECGGGGSGGGGSCPPCPAPELLGGPSVFLFPPKPKDTLMISRTPEVTCVVVDVSHEDPEVKFNWYVDGVEVHNAKTKPREEQYNSTYRVVSVLTVLHQDWLNGKEYKCKVSNKALPAPIEKTISKAKGQPREPQVYTLPPSRDELTKNQVSLSCAVKGFYPSDIAVEWESNGQPENNYKTTPPVLDSDGSFFLVSKLTVDKSRWQQGNVFSCSVMHEALHNHYTQKSLSLSPG", "values": [
      {"measurement": "fold reduction of ability to induce agglutination in comparison to A-D5 IgG1", "setting": "[1]", "value": "> 241", "unit": "fold"}
    ]}
  ]
}
